# Assay results as given in US20250341522A1, “Treatment Strategies for Pancreatic Cancer Using Recombinant Acid Sphingomyelinase” (University of Cincinnati, priority 2024, published 2025).
# Values joined by “and” are separate entries in the source; they are usually repeats but may differ in a detail not shown here. Equal entries are not always repeated. Where two headings read alike, the source gives them in different places.
# Columns and labels:
# KPC cells = assay: Tumor growth in wt mice after peritoneal injection of KPC cells, gemcitabine plus recombinant ASM (Example 10, FIG. 11); format: in vivo; settings: 0.75 mg/kg i.v. twice daily, 2 treatment cycles of 4 days each, in combination with gemcitabine; KPC tumor-injected wt mice
# Method: FIG. 11 is a graph showing the results of wt mice that were treated with gemcitabine alone, gemcitabine plus recombinant ASM, or vehicle control after peritoneal injection of KPC cells. Recombinant ASM was administered twice daily at 0.75 mg/kg i.v. for two treatment cycles of 4 days each.
# Since PDAC growth in ASM-tr mice. we determined the therapeutic potential of exogenous administration of recombinant ASM. We administered 0.75 mg/kg recombinant ASM i.v. twice daily to tumor-injected mice for 2 treatment cycles of 4 days each in combination with the standard treatment, i.e. gemcitabine. […] However, because the half-life of recombinant ASM is only 2 h, these studies must be repeated with continuous infusion of ASM.
# Wt mice were treated with gemcitabine alone (“Group 1”), gemcitabine plus recombinant ASM (“Group 2”) or vehicle control after peritoneal injection of KPC cells (“Group 3”). Recombinant ASM was administered twice daily 0.75 mg/kg i.v. for two treatment cycles of 4 days each.
# KPC tumor cells = assay: Survival after i.p. injection of KPC tumor cells (Example 11); format: in vivo, mice; settings: 50 000 KPC tumor cells i.p., rec. ASM i.p. twice daily for 2 weeks, starting 2 days after tumor injection; for Survival of individual subjects: anti-PD1 every 2nd day i.p. 250 μg/25 g where combined
# Method: Group 1: 50 000 KPC tumor cells were i.p. injected and tumor development was determined. For this group, the subjects survived, respectively, for 27, 28, 28, 29, 30, and 31 days.
# Group 2: Survival time was collected for subjects upon application of recombinant acid sphingomyelinase (i.p., twice daily, for 2 weeks, starting 2 days after tumor injection). For this group, the subjects survived, respectively, for 48, 55, 57, 60, 62, 65 and 70 days. The acid sphingomyelinase was injected for a longer time and i.p. in these experiments than in FIG. 11.
# Group 3: Survival time was collected for subjects upon application of recombinant acid sphingomyelinase (i.p., twice daily, for 2 weeks, starting 2 days after tumor injection)+application of anti-PD1 antibodies (every 2nd day i.p., 250 μg/25 g). For this group, the subjects survived, respectively, for 75, 80, 85, 87, 90, 93 and 96 days. The half-life time of acid sphingomyelinase is rather short in mice (2 hrs, but much longer in humans with 2 weeks). Thus, the i.p. injection are not very sufficient and must be replaced by continuous infusion, which may allow complete elimination of the tumors.
# [1] = cited from earlier work
# PD1 on CD3 lymphocytes = assay: PD1 surface expression on CD3 lymphocytes by flow cytometry in KPC tumor mice (Example 12); format: in vivo; settings: wildtype mice, KPC-PDAC (50 000 cells i.p.), 21 days; rec. ASM for 2 days with 4 i.p. injections/day; individual mice
# Method: FIG. 12 is a graph showing the PDI expression on lymphocytes of tumor mice upon treatment with recombinant acid sphingomyelinase or solvent.
# The PD1 expression on lymphocytes with/without treatment with recombinant acid sphingomyelinase was determined. The surface expression of PD1 on CD3 lymphocytes was determined by flow cytometry upon staining with FITC-anti-PD1 and APC-anti-CD3 antibodies, expressed as mean fluorescence in a.u. of PD1 in the CD3-positive cell population. Mice were i.p. injected with 50 000 KPC tumor cells, left for 21 days untreated or treated with recombinant acid sphingomyelinase for 2 days with 4 i.p. injections/day.
# [2] = in humans; cited from earlier work
molecule,measurement,setting,value
"recombinant ASM: recombinant acid sphingomyelinase (EC 3.1.4.12, SMPD1), a lysosomal hydrolase glycoprotein degrading sphingomyelin to phosphorylcholine and ceramide (protein, UniProt P17405 47-631, looked up) Sphingomyelin …: LALSDSRVLWAPAEAHPLSPQGHPARLHRIVPRLRDVFGWGNLTCPICKGLFTAINLGLKKEPNVARVGSVAIKLCNLLKIAPPAVCQSIVHLFEDDMVEVWRRSVLSPSEACGLLLGSTCGHWDIFSSWNISLPTVPKPPPKPPSPPAPGAPVSRILFLTDLHWDHDYLEGTDPDCADPLCCRRGSGLPPASRPGAGYWGEYSKCDLPLRTLESLLSGLGPAGPFDMVYWTGDIPAHDVWHQTRQDQLRALTTVTALVRKFLGPVPVYPAVGNHESTPVNSFPPPFIEGNHSSRWLYEAMAKAWEPWLPAEALRTLRIGGFYALSPYPGLRLISLNMNFCSRENFWLLINSTDPAGQLQWLVGELQAAEDRGDKVHIIGHIPPGHCLKSWSWNYYRIVARYENTLAAQFFGHTHVDEFEVFYDEETLSRPLAVAFLAPSATTYIGLNPGYRVYQIDGNYSGSSHVVLDHETYILNLTQANIPGAIPHWQLLYRARETYGLPNTLPTAWHNLVYRMRGDMQLFQTFWFLYHKGHPPSEPCGTPCRLATLCAQLSARADSPALCRHLMPDGSLPEAQSLWPRPLFC",tumor growth,KPC cells,delayed tumor growth
same,Survival of individual subjects,KPC tumor cells,48 days and 55 days and 57 days and 60 days and 62 days and 65 days and 70 days
same,Survival of individual subjects,KPC tumor cells; listed as Rec. ASM alone,48 days and 55 days and 57 days and 60 days and 62 days and 65 days and 70 days
same,Avg. Survival,KPC tumor cells; anti-PD1 every 2nd day i.p. where combined,59.6 days
same,half-life time of acid sphingomyelinase,[1]; in mice,2 h
same,half-life of recombinant ASM,[1]; stated in mouse study of Example 10,2 h
same,"Surface expression of PD1 on CD3 lymphocytes, mean fluorescence of PD1 in the CD3-positive cell population",PD1 on CD3 lymphocytes,138 a.u. and 129 a.u. and 125 a.u. and 118 a.u. and 131 a.u. and 115 a.u. and 141 a.u.
same,half-life time of acid sphingomyelinase,[2],2 weeks
